# Laboratory results published in patent US20040248198A1 (ST JUDE CHILDREN S RESEARCH HOSPITAL, published 2004).
# Where no end group is shown, it is not given here.
# T1: His-tagged mArfN37 (mouse)
# T1 construct: Captured on the SPR chip through a covalently attached Tetra-His antibody; also called His-mArfN37; His-tagged mArf37; not shown: thrombin-cleavable poly-His tag
# T1 chain: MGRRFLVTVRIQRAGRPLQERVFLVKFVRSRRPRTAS
# B1: 41-55 (peptide)
# peptide: AAVALVLMLLRSQRL
# modifications: not fully specified
# notes: also called human p14Arf library peptide, residues 41-55
# B2: 46-60 (peptide)
# peptide: VLMLLRSQRLGQQPL
# modifications: not fully specified
# notes: also called human p14Arf library peptide, residues 46-60
# B3: 51-65 (peptide)
# peptide: RSQRLGQQPLPRRPG
# modifications: not fully specified
# notes: also called human p14Arf library peptide, residues 51-65
# B4: 56-70 (peptide)
# peptide: GQQPLPRRPGHDDGQ
# modifications: not fully specified
# notes: also called human p14Arf library peptide, residues 56-70
# B5: 61-75 (peptide)
# peptide: PRRPGHDDGQRPSGG
# modifications: not fully specified
# notes: also called human p14Arf library peptide, residues 61-75
# B6: 66-80 (peptide)
# peptide: HDDGQRPSGGAAAAP
# modifications: not fully specified
# notes: also called human p14Arf library peptide, residues 66-80
# B7: 71-85 (peptide)
# peptide: RPSGGAAAAPRRGAQ
# modifications: not fully specified
# notes: also called human p14Arf library peptide, residues 71-85
# B8: 76-90 (peptide)
# peptide: AAAAPRRGAQLRRPR
# modifications: not fully specified
# notes: also called human p14Arf library peptide, residues 76-90
# B9: 81-95 (peptide)
# peptide: RRGAQLRRPRHSHPT
# modifications: not fully specified
# notes: also called human p14Arf library peptide, residues 81-95
# B10: 91-105 (peptide)
# peptide: HSHPTRARRCPGGLP
# modifications: not fully specified
# notes: also called human p14Arf library peptide, residues 91-105
# B11: 96-110 (peptide)
# peptide: RARRCPGGLPGHAGG
# modifications: not fully specified
# notes: also called human p14Arf library peptide, residues 96-110
# B12: 101-115 (peptide)
# peptide: PGGLPGHAGGAAPGR
# modifications: not fully specified
# B13: 106-120 (peptide)
# peptide: GHAGGAAPGRGAAGR
# modifications: not fully specified
# notes: also called human p14Arf library peptide, residues 106-120
# B14: 111-125 (peptide)
# peptide: AAPGRGAAGRARCLG
# modifications: not fully specified
# notes: also called human p14Arf library peptide, residues 111-125
# B15: 116-130 (peptide)
# peptide: GAAGRARCLGPSARG
# modifications: not fully specified
# notes: also called human p14Arf library peptide, residues 116-130
# B16: 21-35 (peptide)
# peptide: RVFVVHIPRLTGEWA
# modifications: not fully specified
# notes: also called human p14Arf library peptide, residues 21-35
# B17: 26-40 (peptide)
# peptide: HIPRLTGEWAAPGAP
# modifications: not fully specified
# notes: also called human p14Arf library peptide, residues 26-40
# B18: 31-45 (peptide)
# peptide: TGEWAAPGAPAAVAL
# modifications: not fully specified
# notes: also called human p14Arf library peptide, residues 31-45
# B19: 1-15 (peptide)
# peptide: MGRRFLVTVRIQRAG
# modifications: not fully specified
# notes: also called mouse p19Arf library peptide, residues 1-15
# B20: 6-20 (peptide)
# peptide: LVTVRIQRAGRPLQE
# modifications: not fully specified
# notes: also called mouse p19Arf library peptide, residues 6-20
# B21: 21-35 (peptide)
# peptide: RVFLVKFVRSRRPRT
# modifications: not fully specified
# notes: also called mouse p19Arf library peptide, residues 21-35
# B22: 26-40 (peptide)
# peptide: KFVRSRRPRTASCAL
# modifications: not fully specified
# notes: also called mouse p19Arf library peptide, residues 26-40
# B23: 235-249 (peptide)
# peptide: WLDQDSVSDQFSVEF
# modifications: not fully specified
# B24: 245-259 (peptide)
# peptide: FSVEFEVESLDSEDY
# modifications: not fully specified
# B25: 210-224 (peptide)
# peptide: SSSSESTGTPSNPDL
# modifications: not fully specified
# notes: also called Hdm2 library peptide, residues 210-224
# B26: 215-229 (peptide)
# peptide: STGTPSNPDLDAGVS
# modifications: not fully specified
# notes: also called Hdm2 library peptide, residues 215-229
# B27: 220-234 (peptide)
# peptide: SNPDLDAGVSEHSGD
# modifications: not fully specified
# notes: also called Hdm2 library peptide, residues 220-234
# B28: 230-244 (peptide)
# peptide: EHSGDWLDQDSVSDQ
# modifications: not fully specified
# notes: also called Hdm2 library peptide, residues 230-244
# B29: 255-269 (peptide)
# peptide: DSEDYSLSEEGQELS
# modifications: not fully specified
# B30: 260-274 (peptide)
# peptide: SLSEEGQELSDEDDE
# modifications: not fully specified
# notes: also called Hdm2 library peptide, residues 260-274
# B31: 265-279 (peptide)
# peptide: GQELSDEDDEVYQVT
# modifications: not fully specified
# notes: also called Hdm2 library peptide, residues 265-279
# B32: 280-294 (peptide)
# peptide: VYQAGESDTDSFEED
# modifications: not fully specified
# notes: also called Hdm2 library peptide, residues 280-294
# B33: 285-299 (peptide)
# peptide: ESDTDSFEEDPEISL
# modifications: not fully specified
# notes: also called Hdm2 library peptide, residues 285-299
# B34: 295-309 (peptide)
# peptide: PEISLADYWKCTSCN
# modifications: not fully specified; cysteine pairing not given here
# B35: 300-314 (peptide)
# peptide: ADYWKCTSCNEMNPP
# modifications: not fully specified; cysteine pairing not given here
# notes: also called Hdm2 library peptide, residues 300-314
# B36: 310-324 (peptide)
# peptide: EMNPPLPSHCNRCWA
# modifications: not fully specified; cysteine pairing not given here
# notes: also called Hdm2 library peptide, residues 310-324
# B37: 315-329 (peptide)
# peptide: LPSHCNRCWALRENW
# modifications: not fully specified; cysteine pairing not given here
# notes: also called Hdm2 library peptide, residues 315-329
# B38: 320-334 (peptide)
# peptide: NRCWALRENWLPEDK
# modifications: not fully specified
# notes: also called Hdm2 library peptide, residues 320-334
# B39: 325-339 (peptide)
# peptide: LRENWLPEDKGKDKG
# modifications: not fully specified
# notes: also called Hdm2 library peptide, residues 325-339
# B40: 330-344 (peptide)
# peptide: LPEDKGKDKGEISEK
# modifications: not fully specified
# notes: also called Hdm2 library peptide, residues 330-344
# B41: 335-349 (peptide)
# peptide: GKDKGEISEKAKLEN
# modifications: not fully specified
# Target: T2, His-tagged Hdm2 210-304 (human, UniProt Q00987 210-304)
# T2 construct: not shown: thrombin-cleavable poly-His tag from pET28a
# Assay: SPR (Biacore), His-tagged Hdm2 210-304 captured by anti-His antibody, human Arf peptide as analyte, reference cell subtracted
# Protocol: (§1) Surface Plasmon Resonance. Binding studies were performed using a Biacore 3000 surface plasmon resonance (SPR) instrument (Biacore, Inc.). A Tetra-His™ Antibody (Qiagen, Inc.; Cat. #34670) was covalently attached to a carboxymethylated gold surface (C-1 chip; Biacore, Inc.). The carboxymethyl groups on the surface were activated with N-ethyl-N-(3-dimethylaminopropyl) carbodiimide (EDC) and N-hydroxysuccinimide (NHS) and the antibody was attached at pH 7.4 in 20 mM sodium phosphate buffer, 150 mM NaCl (PBS). Reactive sites remaining on the surface were blocked by reaction with ethanolamine. The His-tagged ligand was attached to the antibody by injecting a […] solution of the ligand in 10 mM HEPES, 150 mM NaCl, pH 7.4 (HBS-N buffer, Biacore) at a flow rate of 10 μL/Min through the flow cell. A reference cell was prepared similarly except that no His-tagged ligand was added. Binding was measured by flowing the non-His-tagged analyte through the reference and ligand-containing flow cells in sequence. Prior to injection of ligands, the chip surfaces were equilibrated in HBS-N buffer. Changes in the SPR response due to solvent differences and the injection process were monitored by injection of HBS-N buffer alone. Regeneration of the chip surface to remove bound analyte and ligand was accomplished by two 100 μL injections of 10 mM glycine, pH 2.0 through both flow cells. Data reported is-the difference in SPR signal between the flow cell containing analyte and the reference cell. Duplicate injections were made and the SPR response values reported are the average of these two injections.
# (§2) Two libraries of peptides 15 amino acids in length were synthesized based on the sequence of exon 1β of mouse p19^Arf and the entire sequence of human p14^Arf. The sequence for the first peptide in each library corresponded to the first 15 amino acids of the protein sequences. […] This approach yielded two libraries of overlapping peptides spanning mouse p19^Arf residues 1-64 and human p14^Arf residues 1-132. The ability of these peptides to bind Hdm2 fragments was determined using the surface plasmon resonance (SPR) technique with a Biacore 3000 instrument.
# T2 sequence (Q00987 210-304): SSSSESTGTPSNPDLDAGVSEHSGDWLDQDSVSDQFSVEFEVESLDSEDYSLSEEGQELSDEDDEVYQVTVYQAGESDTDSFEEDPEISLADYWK
row,binding result,Binder
1,no binding (tested: not given),B1
2,no binding (tested: not given),B2
3,no binding (tested: not given),B3
4,no binding (tested: not given),B4
5,no binding (tested: not given),B5
6,no binding (tested: not given),B6
7,no binding (tested: not given),B7
8,no binding (tested: not given),B8
9,no binding (tested: not given),B9
10,no binding (tested: not given),B10
11,no binding (tested: not given),B11
12,no binding (tested: not given),B12
13,no binding (tested: not given),B13
14,no binding (tested: not given),B14
15,no binding (tested: not given),B15
16,no binding (tested: not given),B16
17,no binding (tested: not given),B17
18,no binding (tested: not given),B18

# Target: T2, His-tagged Hdm2 210-304
# Assay: SPR (Biacore), His-tagged Hdm2 210-304 captured by anti-His antibody, mouse Arf peptide as analyte, reference cell subtracted
# Protocol: as §1, §2
row,binding result,Binder
1,binds,B19
2,binds,B20
3,binds,B21
4,binds,B22

# Target: T1, His-tagged mArfN37
# Assay: SPR (Biacore), His-tagged mArfN37 captured by anti-His antibody, Hdm2 peptide as analyte, reference cell subtracted
# Protocol: as §1
# A similar approach using short synthetic peptides and SPR was used to map the segments of Hdm2 that bind mArfN37 (FIG. 5c). […] The first of these as Arf-binding segment is termed “H1” and the second is termed segment “H2”.
row,binding result,Binder
1,binds,B23
2,binds,B24
3,no binding (tested: not given),B25
4,no binding (tested: not given),B26
5,no binding (tested: not given),B27
6,no binding (tested: not given),B28
7,no binding (tested: not given),B29
8,no binding (tested: not given),B30
9,no binding (tested: not given),B31
10,no binding (tested: not given),B32
11,no binding (tested: not given),B33
12,no binding (tested: not given),B34
13,no binding (tested: not given),B35
14,no binding (tested: not given),B36
15,no binding (tested: not given),B37
16,no binding (tested: not given),B38
17,no binding (tested: not given),B39
18,no binding (tested: not given),B40
19,no binding (tested: not given),B41
